Results as given in patent US20050208610.

Assays:
[1] = molecular target: peptide CR005
[2] = molecular target: T1, peptide CR006 (amino acids 49-62)
T1 chain: SLKDYWSTVKDKFS

[3] = molecular target: T2, peptide CR002 (amino acids 41-60)
T2 chain: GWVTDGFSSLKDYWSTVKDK

[4] = molecular target: peptide CR003
[5] = molecular target: peptide CR004

B1: TF:VIIa complex (protein)
chain 1: SGTTNTVAAYNLTWKSTNFKTILEWEPKPVNQVYTVQISTKSGDWKSKCFYTTDTECDLTDEIVKDVKQTYLARVFSYPAGNVESTGSAGEPLYENSPEFTPYLETNLGQPTIQSFEQVGTKVNVTVEDERTLVRRNNTFLSLRDVFGKDLIYTLYYWKSSSSGKKTAKTNTNEFLIDVDKGENYCFSVQAVIPSRTVNRKSTDSPVECMGQEKGEFREIFYIIGAVVFVVIILVIILAISLHKCRKAGVGQSWKENSPLNVS
chain 2: ANAFLEELRPGSLERECKEEQCSFEEAREIFKDAERTKLFWISYSDGDQCASSPCQNGGSCKDQLQSYICFCLPAFEGRNCETHKDDQLICVNENGGCEQYCSDHTGTKRSCRCHEGYSLLADGVSCTPTVEYPCGKIPILEKRNASKPQGRIVGGKVCPKGECPWQVLLLVNGAQLCGGTLINTIWVVSAAHCFDKIKNWRNLIAVLGEHDLSEHDGDEQSRRVAQVIIPSTYVPGTTNHDIALLRLHQPVVLTDHVVPLCLPERTFSERTLAFVRFSLVSGWGQLLDRGATALELMVLNVPRLMTQDCLQQSRKVGDSPNITEYMFCAGYSDGSKDSCKGDSGGPHATHYRGTWYLTGIVSWGQGCATVGHFGVYTRVSQYIEWLQKLMRSEPRPGVLLRAPFP
2-stage chromogenic substrate assay that determines TF:VIIa-mediated activation of factor X [1]: showed no inhibitory activity in the chromogenic substrate assay | 2-stage chromogenic substrate assay that determines TF:VIIa-mediated activation of factor X [2]: Progressive loss of potency was shown as additional N-terminal residues were removed (CR006; amino acids 49-62) | 2-stage chromogenic substrate assay that determines TF:VIIa-mediated activation of factor X [3]: retained the ability to inhibit TF:VIIa mediated activation of factor X, but at much lower potency than the apolipoprotein CIII fragment | 2-stage chromogenic substrate assay that determines TF:VIIa-mediated activation of factor X [4]: showed no inhibitory activity in the chromogenic substrate assay | 2-stage chromogenic substrate assay that determines TF:VIIa-mediated activation of factor X [5]: showed no inhibitory activity in the chromogenic substrate assay
